Assays:
[1] = target: biotinylated HA tag peptide; experiment: free scFv selected with 50 nM HA; translated with PDI
[2] = target: biotinylated HA tag peptide; experiment: free scFv selected with 50 nM HA; translated without PDI
[3] = target: biotinylated HA tag peptide; experiment: mRNA-scFv (ligated protein) selected with 50 nM HA; translated with PDI
[4] = target: biotinylated HA tag peptide; experiment: mRNA-scFv selected with 50 nM HA; PDI: Yes, RT before selection with DTT
[5] = target: biotinylated HA tag peptide; experiment: mRNA-scFv (ligated protein) selected with 50 nM HA; translated without PDI
[6] = target: biotinylated HA tag peptide; experiment: mRNA-scFv selected with 50 nM HA; PDI: Yes, RT before selection without DTT
[7] = target: biotinylated HA tag peptide; experiment: mRNA-scFv selected with 50 nM HA; PDI: No, RT: No (same value as the 33rd table, row 10, column 5)
[8] = target: biotinylated HA tag peptide; experiment: mRNA-scFv selected with 50 nM HA; PDI: Yes, RT: No (same value as the 33rd table, row 11, column 5)
[9] = target: T1, human IL-12 (biotinylated) (human, UniProt P29459 23-219; P29460 23-328, biotinylated (site and subunit not stated)); experiment: mRNA-scFv selected with 50 nM IL-12, bead capture, % of input 35S counts recovered
T1 construct: also called hIL-12
T1 sequence (looked up) 1: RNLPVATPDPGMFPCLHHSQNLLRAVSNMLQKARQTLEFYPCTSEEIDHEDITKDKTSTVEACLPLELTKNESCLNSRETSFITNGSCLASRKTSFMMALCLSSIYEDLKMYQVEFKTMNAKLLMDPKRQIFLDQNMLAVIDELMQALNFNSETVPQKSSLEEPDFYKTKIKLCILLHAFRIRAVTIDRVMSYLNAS
T1 sequence (looked up) 2: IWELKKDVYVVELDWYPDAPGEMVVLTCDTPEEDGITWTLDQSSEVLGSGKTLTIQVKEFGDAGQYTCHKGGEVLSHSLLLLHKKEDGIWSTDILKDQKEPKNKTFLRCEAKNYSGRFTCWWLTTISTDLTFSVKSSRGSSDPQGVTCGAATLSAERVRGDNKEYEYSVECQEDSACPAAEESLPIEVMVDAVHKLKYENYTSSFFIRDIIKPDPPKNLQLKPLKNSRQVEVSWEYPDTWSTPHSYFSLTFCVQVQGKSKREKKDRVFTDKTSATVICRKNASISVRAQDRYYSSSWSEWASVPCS

B1: 17/9 scFv (spacer form not stated) (scFv)
scFv: EVQLVESGGGLVQPGRSLRLSCAASGFTFDDYAMHWVRQAPGKGLDWVSAITWNSGHIDYADSVEGRFAVSRDNAKNALYLQMNSLRPEDTAVYYCTKASYLSTSSSLDNWGQGTLVTVSSGGGGSGGGGSGGGGSDIQMTQSPSSLSASIGDRVTITCRASQGIRNYLAWYQQKPGKAPKLLIYAASTLQSGVPSRFSGSGSGTDFTLTISSLQPEDVATYYCQKYNSAPYAFGQGTKVEIKR
% of Recovery, HA (50 nM) selection [1]: 30.5%
% of Recovery, HA (50 nM) selection [2]: 3.3%
% of Recovery, HA (50 nM) selection [3]: 12.4%
% of Recovery, HA (50 nM) selection [4]: 2%
% of Recovery, HA (50 nM) selection [5]: 2.3%
% of Recovery, HA (50 nM) selection [6]: 9.4%
% of Recovery, HA (50 nM) selection [7]: 2.3%
% of Recovery, HA (50 nM) selection [8]: 12.4%

B2: Y61 scFv short (Y61-scCL-short) (scFv)
scFv: MQVQLVQSGGGVVQPGRSLRLSCAASGFTFSSYGMHWVRQAPGKGLEWVAFIRYDGSNKYYADSVKGRFTISRDNSKNTLYLQMKSLRAEDTAVYYCKTHGSHDNWGQGTMVTVSSGGGGSGGGGSGGGGSSYVLTQPPSVSGTPGQRVTISCSGGRSNIGSNTVKWYQQLPGTAPKLLIYGNDQRPSGVPDRFSGSKSGTSASLAITGVQAEDEADYYCQSYDRGTHPALLFGTGTKLTVLGQPKAAPSVTLDYKDDDDKASAI
notes: Human anti-hIL-12 scFv, in vitro translated with 35S-methionine; tested as free protein or as mRNA-scFv (ligated protein), as said under assay; also called Y61-CL-short
Percent of Recovery, IL-12 (50 nM selection) [9]: 21.1%

B3: Y61-scGene3 (Y61 scFv Gene3) (scFv)
scFv: MQVQLVQSGGGVVQPGRSLRLSCAASGFTFSSYGMHWVRQAPGKGLEWVAFIRYDGSNKYYADSVKGRFTISRDNSKNTLYLQMKSLRAEDTAVYYCKTHGSHDNWGQGTMVTVSSGGGGSGGGGSGGGGSSYVLTQPPSVSGTPGQRVTISCSGGRSNIGSNTVKWYQQLPGTAPKLLIYGNDQRPSGVPDRFSGSKSGTSASLAITGVQAEDEADYYCQSYDRGTHPALLFGTGTKLTVLGQPKAAPSVTLPQPPVNAGGGSGGGSGGGSEGGGSEGGGSEGGGSEGGGSGGGSGSGDFDYEKMANANKGAMTENADENALQSDAKGKLDSVATDYDYKDDDDKASAI
notes: also called PF-y61scGene3
Percent of Recovery, IL-12 (50 nM selection) [9]: 8%

B4: Y61-scGene3pA (Y61 scFv Gene3PA) (scFv)
scFv: B3 scFv
Percent of Recovery, IL-12 (50 nM selection) [9]: 6.1%
